Test results: article PMC5945547, “SAAV2152 is a single-stranded DNA binding protein: the third SSB in Staphylococcus aureus” (Oncotarget, 2018)

What was measured:
SaPriA = biological target: T1, SaPriA (Staphylococcus aureus, UniProt Q2G266); assay: ATPase assay, thin-layer chromatography with autoradiography; format: biochemical; details: 0.4 mM [γ-32P]ATP, 0.12 μM SaPriA, 0.1 μM PS4/PS3-dT30 DNA, 40 mM Tris pH 8.0, 10 mM NaCl, 2 mM DTT, 2.5 mM MgCl2, 1 h; labelled compound
T1 construct: gene priA; recombinant
T1 sequence (Q2G266 1-802): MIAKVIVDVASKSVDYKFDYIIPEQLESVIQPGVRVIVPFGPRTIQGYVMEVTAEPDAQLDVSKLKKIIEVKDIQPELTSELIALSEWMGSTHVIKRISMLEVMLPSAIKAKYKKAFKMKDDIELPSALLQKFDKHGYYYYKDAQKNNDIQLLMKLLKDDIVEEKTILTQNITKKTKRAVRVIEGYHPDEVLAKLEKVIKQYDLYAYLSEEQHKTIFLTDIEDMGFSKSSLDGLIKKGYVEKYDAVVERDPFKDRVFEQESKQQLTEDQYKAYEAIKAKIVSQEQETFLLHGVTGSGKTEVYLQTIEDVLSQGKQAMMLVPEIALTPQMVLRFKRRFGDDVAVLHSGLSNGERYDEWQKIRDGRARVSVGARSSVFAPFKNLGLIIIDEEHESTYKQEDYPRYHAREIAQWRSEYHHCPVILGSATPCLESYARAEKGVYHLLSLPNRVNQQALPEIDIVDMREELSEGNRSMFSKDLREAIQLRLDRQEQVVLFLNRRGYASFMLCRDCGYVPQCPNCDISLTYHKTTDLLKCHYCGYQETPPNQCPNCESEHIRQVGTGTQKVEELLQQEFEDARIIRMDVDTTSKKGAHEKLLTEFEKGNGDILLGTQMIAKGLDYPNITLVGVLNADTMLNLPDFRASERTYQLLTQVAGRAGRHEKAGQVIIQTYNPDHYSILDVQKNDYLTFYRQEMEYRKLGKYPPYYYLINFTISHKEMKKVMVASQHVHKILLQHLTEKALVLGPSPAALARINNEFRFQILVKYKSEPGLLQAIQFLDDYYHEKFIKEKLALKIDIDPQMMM

[1] = biological target: SaSsbC with a His tag (product of S. aureus ssb gene SAAV2152) (S. aureus subsp. aureus ED98); assay: cross-linking; glutaraldehyde (0.1% to 5%), SaSsbC 2.5 uM, 4 C, 30 min, Coomassie-stained SDS-PAGE; self-association, tetramer
[2] = biological target: SaSsbC with a His tag (product of S. aureus ssb gene SAAV2152) (S. aureus subsp. aureus ED98); assay: SEC; gel filtration, Superdex 200 prep grade, SaSsbC 2 mg/mL in Buffer B (20 mM HEPES, 100 mM NaCl, pH 7.0), column calibrated with proteins of known mass; self-association, tetramer

Compound | ATPase assay, thin-layer chromatography with autoradiography (SaPriA) | stoichiometry N [1] | stoichiometry N [2]
Nc1ncnc2c1ncn2[C@@H]1O[C@H](COP(=O)(O)OP(=O)(O)OP(=O)(O)O)[C@@H](O)[C@H]1O [ATP] | SaPriA could hydrolyze ATP on its own | – | –
SaSsbC with a His tag (product of S. aureus ssb gene SAAV2152) (natural protein) | – | 4 | 4
